1 molecule from patent US20180291083A1 can be followed below.

The target of the test is HLA-B*07:02 (human). Briefly: UV ligand exchange ELISA; exchange yield grade. The note with it: remark: other sources report otherwise. (In general: ELISA stands for enzyme-linked immunosorbent assay.)

The molecule YPGWHSTTI […] came in with a peptide exchange yield of 20 to 50%.
